Assay results reported in paper PMC9482650, “Quantitative fragmentomics allow affinity mapping of interactomes” (Nature Communications, 2022).

target: T1, DLG3_1, Q92796; test: holdup assay; parameters: key: below the threshold = too weak to quantify, mostly under pKd 3.1 to 4; details: plain residues with an end cap or a label only (N-terminal biotin on a linker: ado-ado)
T1 sequence (Q92796 125-227, limits assumed, looked up): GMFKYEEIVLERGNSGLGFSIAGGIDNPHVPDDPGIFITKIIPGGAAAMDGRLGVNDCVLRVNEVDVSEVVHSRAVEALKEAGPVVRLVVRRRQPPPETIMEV

| Binder | pKd |
| --- | --- |
| PYPTADHMLA [JUP, P14923] | below the threshold |
| TRKRSGEAAV [PFKM, P08237] | below the threshold |

target: DLG4_2, P78352; test: holdup assay; parameters: key: below the threshold = too weak to quantify, mostly under pKd 3.1 to 4; details: plain residues with an end cap or a label only (N-terminal biotin on a linker: ado-ado)
Sequence (P78352 155-259): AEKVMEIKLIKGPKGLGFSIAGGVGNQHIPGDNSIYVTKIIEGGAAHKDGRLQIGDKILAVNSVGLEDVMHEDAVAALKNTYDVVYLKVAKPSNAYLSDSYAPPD

| Binder | pKd |
| --- | --- |
| PYPTADHMLA [JUP, P14923] | below the threshold |
| TRKRSGEAAV [PFKM, P08237] | 3.93 |

target: DLG4_3, P78352; test: holdup assay; parameters: key: below the threshold = too weak to quantify, mostly under pKd 3.1 to 4; details: plain residues with an end cap or a label only (N-terminal biotin on a linker: ado-ado)
Sequence (P78352 306-403): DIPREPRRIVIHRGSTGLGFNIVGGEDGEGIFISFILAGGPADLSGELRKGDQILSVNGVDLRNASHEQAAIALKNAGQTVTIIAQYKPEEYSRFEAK

| Binder | pKd |
| --- | --- |
| PYPTADHMLA [JUP, P14923] | below the threshold |
| TRKRSGEAAV [PFKM, P08237] | below the threshold |

target: FRMPD2_1, Q68DX3; test: holdup assay; parameters: key: below the threshold = too weak to quantify, mostly under pKd 3.1 to 4; details: plain residues with an end cap or a label only (N-terminal biotin on a linker: ado-ado)
Sequence (Q68DX3 770-861): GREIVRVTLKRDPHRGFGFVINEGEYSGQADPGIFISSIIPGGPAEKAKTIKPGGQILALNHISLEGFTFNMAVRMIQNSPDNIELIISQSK

| Binder | pKd |
| --- | --- |
| PYPTADHMLA [JUP, P14923] | below the threshold |
| TRKRSGEAAV [PFKM, P08237] | 4 |

target: FRMPD2_2, Q68DX3; test: holdup assay; parameters: key: below the threshold = too weak to quantify, mostly under pKd 3.1 to 4; details: plain residues with an end cap or a label only (N-terminal biotin on a linker: ado-ado)
Sequence (Q68DX3 944-1038): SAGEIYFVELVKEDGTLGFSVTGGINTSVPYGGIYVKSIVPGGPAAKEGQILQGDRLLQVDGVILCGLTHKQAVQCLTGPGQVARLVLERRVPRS

| Binder | pKd |
| --- | --- |
| PYPTADHMLA [JUP, P14923] | below the threshold |
| TRKRSGEAAV [PFKM, P08237] | below the threshold |

target: GOPC, Q9HD26; test: holdup assay; parameters: key: below the threshold = too weak to quantify, mostly under pKd 3.1 to 4; details: plain residues with an end cap or a label only (N-terminal biotin on a linker: ado-ado)

| Binder | pKd |
| --- | --- |
| PYPTADHMLA [JUP, P14923] | below the threshold |
| TRKRSGEAAV [PFKM, P08237] | below the threshold |

target: GRIP2_4, Q9C0E4; test: holdup assay; parameters: key: below the threshold = too weak to quantify, mostly under pKd 3.1 to 4; details: plain residues with an end cap or a label only (N-terminal biotin on a linker: ado-ado)
Sequence (Q9C0E4 446-548): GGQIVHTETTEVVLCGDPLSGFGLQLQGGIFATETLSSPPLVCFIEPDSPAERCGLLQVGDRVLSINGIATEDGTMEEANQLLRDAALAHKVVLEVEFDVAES

| Binder | pKd |
| --- | --- |
| PYPTADHMLA [JUP, P14923] | below the threshold |
| TRKRSGEAAV [PFKM, P08237] | below the threshold |

target: HTRA2, O43464; test: holdup assay; parameters: key: below the threshold = too weak to quantify, mostly under pKd 3.1 to 4; details: plain residues with an end cap or a label only (N-terminal biotin on a linker: ado-ado)
Sequence (O43464 355-458): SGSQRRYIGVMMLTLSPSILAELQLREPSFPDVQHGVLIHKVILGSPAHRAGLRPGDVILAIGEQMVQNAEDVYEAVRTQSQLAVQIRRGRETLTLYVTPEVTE

| Binder | pKd |
| --- | --- |
| PYPTADHMLA [JUP, P14923] | below the threshold |
| TRKRSGEAAV [PFKM, P08237] | below the threshold |

target: T2, HTRA3, P83110; test: holdup assay; parameters: key: below the threshold = too weak to quantify, mostly under pKd 3.1 to 4; details: plain residues with an end cap or a label only (N-terminal biotin on a linker: ado-ado)
T2 sequence (P83110 354-453, limits assumed, looked up): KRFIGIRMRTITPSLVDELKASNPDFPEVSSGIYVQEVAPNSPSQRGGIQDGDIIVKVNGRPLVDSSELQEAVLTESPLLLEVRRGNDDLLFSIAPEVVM

| Binder | pKd |
| --- | --- |
| PYPTADHMLA [JUP, P14923] | below the threshold |
| TRKRSGEAAV [PFKM, P08237] | below the threshold |

target: IL16_4, Q14005; test: holdup assay; parameters: key: below the threshold = too weak to quantify, mostly under pKd 3.1 to 4; details: plain residues with an end cap or a label only (N-terminal biotin on a linker: ado-ado)
Sequence (Q14005 1229-1329): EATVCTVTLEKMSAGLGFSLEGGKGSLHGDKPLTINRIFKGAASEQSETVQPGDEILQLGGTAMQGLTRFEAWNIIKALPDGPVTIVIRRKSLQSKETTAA

| Binder | pKd |
| --- | --- |
| PYPTADHMLA [JUP, P14923] | below the threshold |
| TRKRSGEAAV [PFKM, P08237] | 3.64 |

target: Inadl_1, Q8NI35; test: holdup assay; parameters: key: below the threshold = too weak to quantify, mostly under pKd 3.1 to 4; details: plain residues with an end cap or a label only (N-terminal biotin on a linker: ado-ado)
Sequence (Q8NI35 113-229): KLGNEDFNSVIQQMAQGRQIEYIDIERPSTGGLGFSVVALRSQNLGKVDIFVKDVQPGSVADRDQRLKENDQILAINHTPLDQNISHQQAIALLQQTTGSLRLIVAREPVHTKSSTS

| Binder | pKd |
| --- | --- |
| PYPTADHMLA [JUP, P14923] | below the threshold |
| TRKRSGEAAV [PFKM, P08237] | below the threshold |

target: Inadl_6, Q8NI35; test: holdup assay; parameters: key: below the threshold = too weak to quantify, mostly under pKd 3.1 to 4; details: plain residues with an end cap or a label only (N-terminal biotin on a linker: ado-ado)
Sequence (Q8NI35 1058-1167): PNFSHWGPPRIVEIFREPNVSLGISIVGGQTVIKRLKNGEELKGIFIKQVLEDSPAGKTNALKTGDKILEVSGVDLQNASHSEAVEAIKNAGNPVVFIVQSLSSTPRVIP

| Binder | pKd |
| --- | --- |
| PYPTADHMLA [JUP, P14923] | below the threshold |
| TRKRSGEAAV [PFKM, P08237] | below the threshold |

target: Inadl_9, Q8NI35; test: holdup assay; parameters: key: below the threshold = too weak to quantify, mostly under pKd 3.1 to 4; details: plain residues with an end cap or a label only (N-terminal biotin on a linker: ado-ado)
Sequence (Q8NI35 1530-1615): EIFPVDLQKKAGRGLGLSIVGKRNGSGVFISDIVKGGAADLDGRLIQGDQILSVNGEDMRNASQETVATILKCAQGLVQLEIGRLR

| Binder | pKd |
| --- | --- |
| PYPTADHMLA [JUP, P14923] | below the threshold |
| TRKRSGEAAV [PFKM, P08237] | below the threshold |

target: LAP2, Q96RT1; test: holdup assay; parameters: key: below the threshold = too weak to quantify, mostly under pKd 3.1 to 4; details: plain residues with an end cap or a label only (N-terminal biotin on a linker: ado-ado)
Sequence (Q96RT1 other isoform, or with tags, fused parts or gaps): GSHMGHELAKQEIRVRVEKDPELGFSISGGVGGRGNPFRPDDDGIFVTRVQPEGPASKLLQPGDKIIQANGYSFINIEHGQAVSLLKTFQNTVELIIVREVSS

| Binder | pKd |
| --- | --- |
| PYPTADHMLA [JUP, P14923] | below the threshold |
| TRKRSGEAAV [PFKM, P08237] | 3.48 |

target: T3, LIN7B, Q9HAP6; test: holdup assay; parameters: key: below the threshold = too weak to quantify, mostly under pKd 3.1 to 4; details: plain residues with an end cap or a label only (N-terminal biotin on a linker: ado-ado)
T3 sequence (Q9HAP6 88-185, limits assumed, looked up): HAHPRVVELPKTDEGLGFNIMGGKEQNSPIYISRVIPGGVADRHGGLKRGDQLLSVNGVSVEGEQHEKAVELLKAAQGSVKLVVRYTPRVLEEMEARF

| Binder | pKd |
| --- | --- |
| PYPTADHMLA [JUP, P14923] | 3.6 |
| TRKRSGEAAV [PFKM, P08237] | below the threshold |

target: LNX1_1, Q8TBB1; test: holdup assay; parameters: key: below the threshold = too weak to quantify, mostly under pKd 3.1 to 4; details: plain residues with an end cap or a label only (N-terminal biotin on a linker: ado-ado)
Sequence (Q8TBB1 261-371): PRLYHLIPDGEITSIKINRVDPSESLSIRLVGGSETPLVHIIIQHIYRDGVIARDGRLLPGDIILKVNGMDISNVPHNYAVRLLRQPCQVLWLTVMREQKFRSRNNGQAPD

| Binder | pKd |
| --- | --- |
| PYPTADHMLA [JUP, P14923] | below the threshold |
| TRKRSGEAAV [PFKM, P08237] | below the threshold |

target: MAGI2_3, Q86UL8; test: holdup assay; parameters: key: below the threshold = too weak to quantify, mostly under pKd 3.1 to 4; details: plain residues with an end cap or a label only (N-terminal biotin on a linker: ado-ado)
Sequence (Q86UL8 600-682): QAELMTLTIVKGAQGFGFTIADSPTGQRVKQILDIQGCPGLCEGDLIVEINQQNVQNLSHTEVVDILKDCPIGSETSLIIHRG

| Binder | pKd |
| --- | --- |
| PYPTADHMLA [JUP, P14923] | below the threshold |
| TRKRSGEAAV [PFKM, P08237] | below the threshold |

target: NHERF4_2, Q86UT5; test: holdup assay; parameters: key: below the threshold = too weak to quantify, mostly under pKd 3.1 to 4; details: plain residues with an end cap or a label only (N-terminal biotin on a linker: ado-ado)
Sequence (Q86UT5 220-308): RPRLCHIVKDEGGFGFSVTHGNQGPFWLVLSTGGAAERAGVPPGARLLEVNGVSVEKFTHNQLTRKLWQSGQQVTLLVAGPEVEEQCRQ

| Binder | pKd |
| --- | --- |
| PYPTADHMLA [JUP, P14923] | below the threshold |
| TRKRSGEAAV [PFKM, P08237] | below the threshold |

target: T4, PCLO, Q9Y6V0; test: holdup assay; parameters: key: below the threshold = too weak to quantify, mostly under pKd 3.1 to 4; details: plain residues with an end cap or a label only (N-terminal biotin on a linker: ado-ado)
T4 sequence (Q9Y6V0 4491-4600, limits assumed, looked up): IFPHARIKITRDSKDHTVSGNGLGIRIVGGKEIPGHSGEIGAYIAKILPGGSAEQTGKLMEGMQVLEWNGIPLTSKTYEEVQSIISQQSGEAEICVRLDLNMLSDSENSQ

| Binder | pKd |
| --- | --- |
| PYPTADHMLA [JUP, P14923] | below the threshold |
| TRKRSGEAAV [PFKM, P08237] | below the threshold |

target: PDLIM1, O00151; test: holdup assay; parameters: key: below the threshold = too weak to quantify, mostly under pKd 3.1 to 4; details: plain residues with an end cap or a label only (N-terminal biotin on a linker: ado-ado)
Sequence (O00151 1-87): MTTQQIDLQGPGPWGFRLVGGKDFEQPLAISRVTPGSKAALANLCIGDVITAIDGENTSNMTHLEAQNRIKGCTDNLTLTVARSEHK

| Binder | pKd |
| --- | --- |
| PYPTADHMLA [JUP, P14923] | below the threshold |
| TRKRSGEAAV [PFKM, P08237] | below the threshold |

target: T5, PDZD2_2, O15018; test: holdup assay; parameters: key: below the threshold = too weak to quantify, mostly under pKd 3.1 to 4; details: plain residues with an end cap or a label only (N-terminal biotin on a linker: ado-ado)
T5 sequence (O15018 329-429, limits assumed, looked up): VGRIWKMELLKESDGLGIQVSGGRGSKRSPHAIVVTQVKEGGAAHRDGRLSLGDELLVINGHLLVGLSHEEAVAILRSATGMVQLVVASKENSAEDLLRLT

| Binder | pKd |
| --- | --- |
| PYPTADHMLA [JUP, P14923] | below the threshold |
| TRKRSGEAAV [PFKM, P08237] | below the threshold |

target: T6, RAPGEF6, Q8TEU7; test: holdup assay; parameters: key: below the threshold = too weak to quantify, mostly under pKd 3.1 to 4; details: plain residues with an end cap or a label only (N-terminal biotin on a linker: ado-ado)
T6 sequence (Q8TEU7 525-625, limits assumed, looked up): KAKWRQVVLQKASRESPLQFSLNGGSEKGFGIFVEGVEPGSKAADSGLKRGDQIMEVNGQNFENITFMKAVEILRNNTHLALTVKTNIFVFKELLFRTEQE

| Binder | pKd |
| --- | --- |
| PYPTADHMLA [JUP, P14923] | below the threshold |
| TRKRSGEAAV [PFKM, P08237] | below the threshold |

target: SCRIB_3, Q14160; test: holdup assay; parameters: key: below the threshold = too weak to quantify, mostly under pKd 3.1 to 4; details: plain residues with an end cap or a label only (N-terminal biotin on a linker: ado-ado)
Sequence (Q14160 999-1103): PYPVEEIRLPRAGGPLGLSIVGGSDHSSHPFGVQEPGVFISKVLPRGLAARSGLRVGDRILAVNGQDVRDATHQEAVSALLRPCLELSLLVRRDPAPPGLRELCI

| Binder | pKd |
| --- | --- |
| PYPTADHMLA [JUP, P14923] | below the threshold |
| TRKRSGEAAV [PFKM, P08237] | below the threshold |

target: T7, SNTG1, Q9NSN8; test: holdup assay; parameters: key: below the threshold = too weak to quantify, mostly under pKd 3.1 to 4; details: plain residues with an end cap or a label only (N-terminal biotin on a linker: ado-ado)
T7 sequence (Q9NSN8 52-150, limits assumed, looked up): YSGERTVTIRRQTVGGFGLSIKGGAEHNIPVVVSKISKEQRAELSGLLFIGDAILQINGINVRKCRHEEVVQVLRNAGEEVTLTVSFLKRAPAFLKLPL

| Binder | pKd |
| --- | --- |
| PYPTADHMLA [JUP, P14923] | below the threshold |
| TRKRSGEAAV [PFKM, P08237] | below the threshold |

target: T8, TIAM2, Q8IVF5; test: holdup assay; parameters: key: below the threshold = too weak to quantify, mostly under pKd 3.1 to 4; details: plain residues with an end cap or a label only (N-terminal biotin on a linker: ado-ado)
T8 sequence (Q8IVF5 885-986, limits assumed, looked up): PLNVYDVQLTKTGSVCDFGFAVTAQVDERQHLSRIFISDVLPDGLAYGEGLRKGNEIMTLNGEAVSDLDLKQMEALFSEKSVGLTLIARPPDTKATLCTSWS

| Binder | pKd |
| --- | --- |
| PYPTADHMLA [JUP, P14923] | 3.92 |
| TRKRSGEAAV [PFKM, P08237] | below the threshold |

target: TJP1_3, Q07157; test: holdup assay; parameters: key: below the threshold = too weak to quantify, mostly under pKd 3.1 to 4; details: plain residues with an end cap or a label only (N-terminal biotin on a linker: ado-ado)
Sequence (Q07157 416-512): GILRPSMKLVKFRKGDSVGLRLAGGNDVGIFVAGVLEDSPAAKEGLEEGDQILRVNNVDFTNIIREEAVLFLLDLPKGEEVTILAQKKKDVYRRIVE

| Binder | pKd |
| --- | --- |
| PYPTADHMLA [JUP, P14923] | below the threshold |
| TRKRSGEAAV [PFKM, P08237] | below the threshold |

target: TJP2_1, Q9UDY2; test: holdup assay; parameters: key: below the threshold = too weak to quantify, mostly under pKd 3.1 to 4; details: plain residues with an end cap or a label only (N-terminal biotin on a linker: ado-ado)
Sequence (Q9UDY2 24-128): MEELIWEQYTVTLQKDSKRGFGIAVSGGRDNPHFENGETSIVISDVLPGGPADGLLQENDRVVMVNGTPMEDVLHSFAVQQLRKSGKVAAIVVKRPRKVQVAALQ

| Binder | pKd |
| --- | --- |
| PYPTADHMLA [JUP, P14923] | below the threshold |
| TRKRSGEAAV [PFKM, P08237] | below the threshold |

target: T9, TX1BP3, O14907; test: holdup assay; parameters: key: below the threshold = too weak to quantify, mostly under pKd 3.1 to 4; details: plain residues with an end cap or a label only (N-terminal biotin on a linker: ado-ado)
T9 sequence (O14907 10-122, limits assumed, looked up): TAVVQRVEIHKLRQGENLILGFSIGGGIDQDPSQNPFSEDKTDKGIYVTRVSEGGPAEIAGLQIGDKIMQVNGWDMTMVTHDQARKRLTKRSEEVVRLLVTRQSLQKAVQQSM

| Binder | pKd |
| --- | --- |
| PYPTADHMLA [JUP, P14923] | 4.01 |
| TRKRSGEAAV [PFKM, P08237] | 4.07 |
